Reference: PMC9482650, “Quantitative fragmentomics allow affinity mapping of interactomes” (Nature Communications, 2022)
Substitutions are numbered along the chain they refer to.

B1: CD46, P15529 (peptide)
chain: THREVKFTSL
B2: NRXN3, Q9HDB5 (peptide)
chain: QKNKDREYYV

Molecular target: GORASP2, Q9H8Y8
Experiment: holdup assay
Set-up: key: below the threshold = too weak to quantify, mostly under pKd 3.1 to 4
Settings: plain residues with an end cap or a label only (N-terminal biotin on a linker: ado-ado)

| Binder | pKd |
| --- | --- |
| B1 | below the threshold |
| B2 | 4.67 |

Molecular target: T1, LIN7B, Q9HAP6
T1 sequence (Q9HAP6 88-185, limits assumed, looked up): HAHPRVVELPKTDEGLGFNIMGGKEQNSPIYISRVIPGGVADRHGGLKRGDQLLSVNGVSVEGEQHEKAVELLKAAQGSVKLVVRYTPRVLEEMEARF
Experiment: holdup assay
Set-up: key: below the threshold = too weak to quantify, mostly under pKd 3.1 to 4
Settings: plain residues with an end cap or a label only (N-terminal biotin on a linker: ado-ado)

| Binder | pKd |
| --- | --- |
| B1 | 3.88 |
| B2 | below the threshold |

Molecular target: Inadl_9, Q8NI35
Sequence (Q8NI35 1530-1615): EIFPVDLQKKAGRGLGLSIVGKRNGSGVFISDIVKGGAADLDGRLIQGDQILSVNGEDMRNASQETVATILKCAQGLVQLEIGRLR
Experiment: holdup assay
Set-up: key: below the threshold = too weak to quantify, mostly under pKd 3.1 to 4
Settings: plain residues with an end cap or a label only (N-terminal biotin on a linker: ado-ado)

| Binder | pKd |
| --- | --- |
| B1 | below the threshold |
| B2 | 4.56 |

Molecular target: T2, MPDZ_12, O75970
T2 sequence (O75970 1857-1958, limits assumed, looked up): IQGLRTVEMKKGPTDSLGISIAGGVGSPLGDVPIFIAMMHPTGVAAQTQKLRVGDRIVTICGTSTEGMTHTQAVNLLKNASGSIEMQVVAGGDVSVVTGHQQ
Experiment: holdup assay
Set-up: key: below the threshold = too weak to quantify, mostly under pKd 3.1 to 4
Settings: plain residues with an end cap or a label only (N-terminal biotin on a linker: ado-ado)

| Binder | pKd |
| --- | --- |
| B1 | below the threshold |
| B2 | below the threshold |

Molecular target: DLG1_2, Q12959
Sequence (Q12959 314-412): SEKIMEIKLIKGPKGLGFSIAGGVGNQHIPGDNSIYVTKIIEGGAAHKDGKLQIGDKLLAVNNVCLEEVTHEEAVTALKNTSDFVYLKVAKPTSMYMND
Experiment: holdup assay
Set-up: key: below the threshold = too weak to quantify, mostly under pKd 3.1 to 4
Settings: plain residues with an end cap or a label only (N-terminal biotin on a linker: ado-ado)

| Binder | pKd |
| --- | --- |
| B1 | 3.88 |
| B2 | below the threshold |

Molecular target: T3, SHANK1, Q9Y566
T3 sequence (Q9Y566 658-767, limits assumed, looked up): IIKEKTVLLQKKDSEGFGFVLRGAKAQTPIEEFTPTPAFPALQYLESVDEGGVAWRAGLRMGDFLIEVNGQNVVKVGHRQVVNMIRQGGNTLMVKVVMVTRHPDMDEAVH
Experiment: holdup assay
Set-up: key: below the threshold = too weak to quantify, mostly under pKd 3.1 to 4
Settings: plain residues with an end cap or a label only (N-terminal biotin on a linker: ado-ado)

| Binder | pKd |
| --- | --- |
| B1 | 4.39 |
| B2 | below the threshold |

Molecular target: LNX1_1, Q8TBB1
Sequence (Q8TBB1 261-371): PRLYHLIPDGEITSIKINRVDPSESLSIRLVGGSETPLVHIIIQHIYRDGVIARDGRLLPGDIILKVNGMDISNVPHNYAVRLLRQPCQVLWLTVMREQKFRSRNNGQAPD
Experiment: holdup assay
Set-up: key: below the threshold = too weak to quantify, mostly under pKd 3.1 to 4
Settings: plain residues with an end cap or a label only (N-terminal biotin on a linker: ado-ado)

| Binder | pKd |
| --- | --- |
| B1 | 3.5 |
| B2 | 3.65 |

Molecular target: GRASP, Q7Z6J2
Sequence (Q7Z6J2 96-193): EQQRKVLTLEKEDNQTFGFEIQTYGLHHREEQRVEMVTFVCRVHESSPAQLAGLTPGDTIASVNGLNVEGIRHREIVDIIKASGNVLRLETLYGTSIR
Experiment: holdup assay
Set-up: key: below the threshold = too weak to quantify, mostly under pKd 3.1 to 4
Settings: plain residues with an end cap or a label only (N-terminal biotin on a linker: ado-ado)

| Binder | pKd |
| --- | --- |
| B1 | 4.77 |
| B2 | below the threshold |

Molecular target: ARHGEF12, Q9NZN5-2
Sequence (Q9NZN5 other isoform, or with tags, fused parts or gaps): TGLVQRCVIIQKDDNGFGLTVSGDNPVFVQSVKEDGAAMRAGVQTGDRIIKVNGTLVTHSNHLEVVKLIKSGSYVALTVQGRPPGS
Experiment: holdup assay
Set-up: key: below the threshold = too weak to quantify, mostly under pKd 3.1 to 4
Settings: plain residues with an end cap or a label only (N-terminal biotin on a linker: ado-ado)

| Binder | pKd |
| --- | --- |
| B1 | 5.37 |
| B2 | 3.65 |

Molecular target: T4, DVL3, Q92997
T4 sequence (Q92997 244-331, limits assumed, looked up): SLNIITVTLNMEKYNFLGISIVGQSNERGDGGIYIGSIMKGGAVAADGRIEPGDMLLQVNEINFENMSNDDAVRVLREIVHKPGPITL
Experiment: holdup assay
Set-up: key: below the threshold = too weak to quantify, mostly under pKd 3.1 to 4
Settings: plain residues with an end cap or a label only (N-terminal biotin on a linker: ado-ado)

| Binder | pKd |
| --- | --- |
| B1 | below the threshold |
| B2 | 4.02 |

Molecular target: Inadl_5, Q8NI35
Sequence (Q8NI35 673-780): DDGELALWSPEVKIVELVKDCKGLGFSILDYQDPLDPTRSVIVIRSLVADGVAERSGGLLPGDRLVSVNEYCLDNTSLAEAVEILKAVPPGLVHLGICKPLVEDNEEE
Experiment: holdup assay
Set-up: key: below the threshold = too weak to quantify, mostly under pKd 3.1 to 4
Settings: plain residues with an end cap or a label only (N-terminal biotin on a linker: ado-ado)

| Binder | pKd |
| --- | --- |
| B1 | below the threshold |
| B2 | 4.64 |

Molecular target: NHERF2_2, Q15599
Sequence (Q15599 142-238): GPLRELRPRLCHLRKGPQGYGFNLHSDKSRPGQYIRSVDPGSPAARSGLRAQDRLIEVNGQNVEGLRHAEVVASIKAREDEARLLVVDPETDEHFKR
Experiment: holdup assay
Set-up: key: below the threshold = too weak to quantify, mostly under pKd 3.1 to 4
Settings: plain residues with an end cap or a label only (N-terminal biotin on a linker: ado-ado)

| Binder | pKd |
| --- | --- |
| B1 | 4.36 |
| B2 | below the threshold |

Molecular target: T5, TX1BP3, O14907
T5 sequence (O14907 10-122, limits assumed, looked up): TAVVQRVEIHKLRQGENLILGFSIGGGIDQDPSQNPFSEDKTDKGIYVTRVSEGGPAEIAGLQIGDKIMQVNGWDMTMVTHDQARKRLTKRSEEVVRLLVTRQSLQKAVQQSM
Experiment: holdup assay
Set-up: key: below the threshold = too weak to quantify, mostly under pKd 3.1 to 4
Settings: plain residues with an end cap or a label only (N-terminal biotin on a linker: ado-ado)

| Binder | pKd |
| --- | --- |
| B1 | 4.37 |
| B2 | below the threshold |

Molecular target: T6, LIN7A, O14910
T6 sequence (O14910 103-200, limits assumed, looked up): T1 sequence (Q9HAP6 88-185, limits assumed, looked up) with A2S, I20V, V35I, D42E, Q65H, Q77K, G78D, R89K
Experiment: holdup assay
Set-up: key: below the threshold = too weak to quantify, mostly under pKd 3.1 to 4
Settings: plain residues with an end cap or a label only (N-terminal biotin on a linker: ado-ado)

| Binder | pKd |
| --- | --- |
| B1 | below the threshold |
| B2 | below the threshold |

Molecular target: T7, DLG3_3, Q92796
T7 sequence (Q92796 374-475, limits assumed, looked up): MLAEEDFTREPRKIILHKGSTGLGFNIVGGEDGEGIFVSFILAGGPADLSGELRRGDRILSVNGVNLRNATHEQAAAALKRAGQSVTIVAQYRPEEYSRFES
Experiment: holdup assay
Set-up: key: below the threshold = too weak to quantify, mostly under pKd 3.1 to 4
Settings: plain residues with an end cap or a label only (N-terminal biotin on a linker: ado-ado)

| Binder | pKd |
| --- | --- |
| B1 | 4.21 |
| B2 | below the threshold |

Molecular target: MAST2, Q6P0Q8
Sequence (Q6P0Q8 1099-1202): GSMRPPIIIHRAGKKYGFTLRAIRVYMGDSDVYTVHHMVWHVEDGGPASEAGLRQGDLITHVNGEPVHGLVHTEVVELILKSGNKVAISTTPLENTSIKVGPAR
Experiment: holdup assay
Set-up: key: below the threshold = too weak to quantify, mostly under pKd 3.1 to 4
Settings: plain residues with an end cap or a label only (N-terminal biotin on a linker: ado-ado)

| Binder | pKd |
| --- | --- |
| B1 | 5.57 |
| B2 | 3.77 |

Molecular target: MAGI2_6, Q86UL8
Sequence (Q86UL8 1141-1229): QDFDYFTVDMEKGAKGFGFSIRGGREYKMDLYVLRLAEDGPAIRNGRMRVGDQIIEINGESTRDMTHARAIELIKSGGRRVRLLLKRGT
Experiment: holdup assay
Set-up: key: below the threshold = too weak to quantify, mostly under pKd 3.1 to 4
Settings: plain residues with an end cap or a label only (N-terminal biotin on a linker: ado-ado)

| Binder | pKd |
| --- | --- |
| B1 | 4.59 |
| B2 | below the threshold |

Molecular target: FRMPD2_1, Q68DX3
Sequence (Q68DX3 770-861): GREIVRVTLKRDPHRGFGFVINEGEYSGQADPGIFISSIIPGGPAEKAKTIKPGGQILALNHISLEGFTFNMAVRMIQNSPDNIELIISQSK
Experiment: holdup assay
Set-up: key: below the threshold = too weak to quantify, mostly under pKd 3.1 to 4
Settings: plain residues with an end cap or a label only (N-terminal biotin on a linker: ado-ado)

| Binder | pKd |
| --- | --- |
| B1 | below the threshold |
| B2 | 3.7 |

Molecular target: GRID2IP_1, A4D2P6
Sequence (A4D2P6 1-87): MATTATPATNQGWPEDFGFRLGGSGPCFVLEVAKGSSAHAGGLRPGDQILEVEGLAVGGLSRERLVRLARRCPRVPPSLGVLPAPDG
Experiment: holdup assay
Set-up: key: below the threshold = too weak to quantify, mostly under pKd 3.1 to 4
Settings: plain residues with an end cap or a label only (N-terminal biotin on a linker: ado-ado)

| Binder | pKd |
| --- | --- |
| B1 | below the threshold |
| B2 | below the threshold |

Molecular target: MAGI2_2, Q86UL8
Sequence (Q86UL8 410-522): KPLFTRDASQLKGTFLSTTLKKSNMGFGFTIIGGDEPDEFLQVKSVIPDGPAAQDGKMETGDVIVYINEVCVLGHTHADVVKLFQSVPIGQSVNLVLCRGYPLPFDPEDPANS
Experiment: holdup assay
Set-up: key: below the threshold = too weak to quantify, mostly under pKd 3.1 to 4
Settings: plain residues with an end cap or a label only (N-terminal biotin on a linker: ado-ado)

| Binder | pKd |
| --- | --- |
| B1 | 3.88 |
| B2 | 4.32 |

Molecular target: NHERF4_4, Q86UT5
Sequence (Q86UT5 464-550): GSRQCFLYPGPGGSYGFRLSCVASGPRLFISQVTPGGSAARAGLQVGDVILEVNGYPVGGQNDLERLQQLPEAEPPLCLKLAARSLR
Experiment: holdup assay
Set-up: key: below the threshold = too weak to quantify, mostly under pKd 3.1 to 4
Settings: plain residues with an end cap or a label only (N-terminal biotin on a linker: ado-ado)

| Binder | pKd |
| --- | --- |
| B1 | below the threshold |
| B2 | below the threshold |

Molecular target: DLG5_1, Q8TDM6
Sequence (Q8TDM6 617-713): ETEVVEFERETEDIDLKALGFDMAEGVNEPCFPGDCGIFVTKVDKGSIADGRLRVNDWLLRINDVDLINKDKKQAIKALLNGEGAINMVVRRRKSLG
Experiment: holdup assay
Set-up: key: below the threshold = too weak to quantify, mostly under pKd 3.1 to 4
Settings: plain residues with an end cap or a label only (N-terminal biotin on a linker: ado-ado)

| Binder | pKd |
| --- | --- |
| B1 | below the threshold |
| B2 | below the threshold |

Molecular target: T8, PTPN13_1, Q12923
T8 sequence (Q12923 1088-1188, limits assumed, looked up): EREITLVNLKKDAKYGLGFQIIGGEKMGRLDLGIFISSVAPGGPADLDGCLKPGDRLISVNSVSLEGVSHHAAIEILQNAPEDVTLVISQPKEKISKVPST
Experiment: holdup assay
Set-up: key: below the threshold = too weak to quantify, mostly under pKd 3.1 to 4
Settings: plain residues with an end cap or a label only (N-terminal biotin on a linker: ado-ado)

| Binder | pKd |
| --- | --- |
| B1 | below the threshold |
| B2 | below the threshold |

Molecular target: Inadl_10, Q8NI35
Sequence (Q8NI35 1673-1763): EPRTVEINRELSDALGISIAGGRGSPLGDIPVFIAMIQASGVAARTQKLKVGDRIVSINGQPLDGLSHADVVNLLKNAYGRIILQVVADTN
Experiment: holdup assay
Set-up: key: below the threshold = too weak to quantify, mostly under pKd 3.1 to 4
Settings: plain residues with an end cap or a label only (N-terminal biotin on a linker: ado-ado)

| Binder | pKd |
| --- | --- |
| B1 | 3.49 |
| B2 | below the threshold |

Molecular target: GOPC, Q9HD26
Experiment: holdup assay
Set-up: key: below the threshold = too weak to quantify, mostly under pKd 3.1 to 4
Settings: plain residues with an end cap or a label only (N-terminal biotin on a linker: ado-ado)

| Binder | pKd |
| --- | --- |
| B1 | 4.05 |
| B2 | below the threshold |

Molecular target: T9, PCLO, Q9Y6V0
T9 sequence (Q9Y6V0 4491-4600, limits assumed, looked up): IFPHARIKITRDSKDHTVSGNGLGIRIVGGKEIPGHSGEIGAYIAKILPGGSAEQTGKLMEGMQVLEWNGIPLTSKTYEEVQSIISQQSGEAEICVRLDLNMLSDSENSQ
Experiment: holdup assay
Set-up: key: below the threshold = too weak to quantify, mostly under pKd 3.1 to 4
Settings: plain residues with an end cap or a label only (N-terminal biotin on a linker: ado-ado)

| Binder | pKd |
| --- | --- |
| B1 | below the threshold |
| B2 | below the threshold |

Molecular target: Inadl_1, Q8NI35
Sequence (Q8NI35 113-229): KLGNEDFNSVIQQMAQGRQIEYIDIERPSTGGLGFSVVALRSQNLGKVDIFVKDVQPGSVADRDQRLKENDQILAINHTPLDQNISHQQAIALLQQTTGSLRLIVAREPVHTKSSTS
Experiment: holdup assay
Set-up: key: below the threshold = too weak to quantify, mostly under pKd 3.1 to 4
Settings: plain residues with an end cap or a label only (N-terminal biotin on a linker: ado-ado)

| Binder | pKd |
| --- | --- |
| B1 | below the threshold |
| B2 | 3.69 |

Molecular target: T10, DLG3_1, Q92796
T10 sequence (Q92796 125-227, limits assumed, looked up): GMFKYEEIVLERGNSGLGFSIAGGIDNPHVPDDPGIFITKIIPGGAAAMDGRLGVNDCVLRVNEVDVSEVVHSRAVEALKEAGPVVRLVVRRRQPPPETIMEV
Experiment: holdup assay
Set-up: key: below the threshold = too weak to quantify, mostly under pKd 3.1 to 4
Settings: plain residues with an end cap or a label only (N-terminal biotin on a linker: ado-ado)

| Binder | pKd |
| --- | --- |
| B1 | below the threshold |
| B2 | below the threshold |
